Source: patent publication US20240270821A1, “GIP/GLP1/GCG TRI-RECEPTOR AGONISTS AND USES THEREOF” (priority 2023, published 2024)

T1: human GIP receptor (human) (UniProt P48546)
T1 sequence (looked up): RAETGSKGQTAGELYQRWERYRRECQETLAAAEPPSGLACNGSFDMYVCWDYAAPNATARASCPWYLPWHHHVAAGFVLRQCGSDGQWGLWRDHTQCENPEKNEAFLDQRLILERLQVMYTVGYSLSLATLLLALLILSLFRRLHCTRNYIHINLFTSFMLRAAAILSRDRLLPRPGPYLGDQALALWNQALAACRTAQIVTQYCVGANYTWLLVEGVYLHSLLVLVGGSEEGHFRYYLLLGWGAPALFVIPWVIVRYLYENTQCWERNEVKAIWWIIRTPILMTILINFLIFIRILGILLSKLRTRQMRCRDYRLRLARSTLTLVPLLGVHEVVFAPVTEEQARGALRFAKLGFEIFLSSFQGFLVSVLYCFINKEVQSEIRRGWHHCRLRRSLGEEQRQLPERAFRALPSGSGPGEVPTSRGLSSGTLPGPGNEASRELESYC


Assays:
Experiment in all cases: cell-based or functional assay
hGLP-1R = hGLP-1R (Homo sapiens, UniProt P43220)
hGLP-1R, sequence (P43220 24-463): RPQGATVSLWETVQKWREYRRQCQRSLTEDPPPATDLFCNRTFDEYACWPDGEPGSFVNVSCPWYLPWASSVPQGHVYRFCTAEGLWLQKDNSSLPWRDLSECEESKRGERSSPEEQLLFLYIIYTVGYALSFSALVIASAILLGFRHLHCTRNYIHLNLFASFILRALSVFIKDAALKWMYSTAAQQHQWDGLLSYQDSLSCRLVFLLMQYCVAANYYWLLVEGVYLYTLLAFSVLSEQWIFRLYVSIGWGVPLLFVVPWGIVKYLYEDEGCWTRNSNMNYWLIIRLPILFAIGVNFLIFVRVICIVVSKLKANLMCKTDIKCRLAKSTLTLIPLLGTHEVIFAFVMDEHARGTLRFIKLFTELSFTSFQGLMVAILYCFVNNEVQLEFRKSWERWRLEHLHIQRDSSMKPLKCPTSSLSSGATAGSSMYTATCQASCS

[1] = target: T1, human GIP receptor (human)
[2] = target: human glucagon receptor (human) (UniProt P47871)
human glucagon receptor (human), sequence (P47871 26-477): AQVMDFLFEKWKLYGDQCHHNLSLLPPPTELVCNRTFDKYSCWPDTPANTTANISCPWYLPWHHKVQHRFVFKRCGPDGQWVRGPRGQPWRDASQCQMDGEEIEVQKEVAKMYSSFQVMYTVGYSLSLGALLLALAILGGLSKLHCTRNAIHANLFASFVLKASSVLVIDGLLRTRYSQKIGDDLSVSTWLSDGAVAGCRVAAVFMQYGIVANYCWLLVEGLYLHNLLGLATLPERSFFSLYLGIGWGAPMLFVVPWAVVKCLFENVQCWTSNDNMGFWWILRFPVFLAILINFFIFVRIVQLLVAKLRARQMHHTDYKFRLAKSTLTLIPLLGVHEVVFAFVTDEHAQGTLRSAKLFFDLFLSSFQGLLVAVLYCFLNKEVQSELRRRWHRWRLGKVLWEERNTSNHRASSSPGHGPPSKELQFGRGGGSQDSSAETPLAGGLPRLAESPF

Binder	Relative cAMP EC50 (hGLP-1R)	cAMP Rel EC50 (in the presence of 1% HSA) (hGLP-1R)	Relative cAMP EC50 [1]	cAMP Rel EC50 (in the presence of 1% HSA) [1]	Relative cAMP EC50 [2]	cAMP Rel EC50 (in the presence of 1% HSA) [2]	cAMP Rel EC50 (1% HSA) (hGLP-1R)	cAMP Rel EC50 (1% HSA) [1]	cAMP Rel EC50 (1% HSA) [2]
YXQGTXTSDXXIXLDXKAQXXFIEXLTEGGPSSGEPPPEGTEE (acylated Lys (γGlu)2-C18 diacid; non-natural residues; C-terminal amide; synthetic construct; SITE 2: note = 2-Aminoisobutyric Acid; SITE 6: note = alpha-methyl-2-fluoro-L-phenylalanine; SITE 10: note = 3-(4-Pyridyl)-L-alanine; SITE 11: note = alpha-methyl-L-serine; SITE 13: note = alpha-methyl-leucine; SITE 16: note = L-ornithine; SITE 17: note = Lysine is chemically mo) [Example 597]	0.6 nM	36.4 nM	0.0643 nM	2.38 nM	5.2 nM	329 nM	–	–	–
YXQGTXTSDXXIXLDXKAQXXFIEXLAEGGPSSGEPPPSGTGE (synthetic construct; SITE 2: note = 2-Aminoisobutyric Acid; SITE 6: note = alpha-methyl-2-fluoro-L-phenylalanine; SITE 10: note = 3-(4-Pyridyl)-L-alanine; SITE 11: note = alpha-methyl-L-serine; SITE 13: note = alpha-methyl-leucine; SITE 16: note = L-ornithine; SITE 17: note = Lysine is chemically mo) [Example 545]	0.602 nM	–	0.0432 nM	–	2.71 nM	–	40.2 nM	2.74 nM	180 nM
YXQGTXTSDXSIXLDXKAQXXFIEXLIEGGPSSGEPPPEGT (synthetic construct; SITE 2: note = 2-Aminoisobutyric Acid; SITE 6: note = alpha-methyl-2-fluoro-L-phenylalanine; SITE 10: note = 3-(4-Pyridyl)-L-alanine; SITE 13: note = alpha-methyl-leucine; SITE 16: note = L-ornithine; SITE 17: note = Lysine is chemically modified through conjugation of the epsil) [Example 505]	0.205 nM	–	0.00707 nM	–	0.445 nM	–	39 nM	2.1 nM	92 nM
YXQGTXTSDXXIXLDXKAQXNFIEXLQEGGPSSGEPPPEGT (synthetic construct; SITE 2: note = 2-Aminoisobutyric Acid; SITE 6: note = alpha-methyl-2-fluoro-L-phenylalanine; SITE 10: note = 3-(4-Pyridyl)-L-alanine; SITE 11: note = alpha-methyl-L-serine; SITE 13: note = alpha-methyl-leucine; SITE 16: note = L-ornithine; SITE 17: note = Lysine is chemically mo) [Example 525]	0.426 nM	–	0.0351 nM	–	10 nM	–	20.2 nM	2.07 nM	460 nM
YXQGTXTSDXXIXLDXKAQXXFIEXLQEGGPSSGEPPPSGTE (synthetic construct; SITE 2: note = 2-Aminoisobutyric Acid; SITE 6: note = alpha-methyl-2-fluoro-L-phenylalanine; SITE 10: note = 3-(4-Pyridyl)-L-alanine; SITE 11: note = alpha-methyl-L-serine; SITE 13: note = alpha-methyl-leucine; SITE 16: note = L-ornithine; SITE 17: note = Lysine is chemically mo) [Example 504]	0.253 nM	–	0.0364 nM	–	2.83 nM	–	16.5 nM	1.8 nM	162 nM
YXQGTXTSDXXILLDXKAQXXFIEYLIEGGPSSGEPPPSGTE (synthetic construct; SITE 2: note = 2-Aminoisobutyric Acid; SITE 6: note = alpha-methyl-2-fluoro-L-phenylalanine; SITE 10: note = 3-(4-Pyridyl)-L-alanine; SITE 11: note = alpha-methyl-L-serine; SITE 16: note = L-ornithine; SITE 17: note = Lysine is chemically modified through conjugation of the epsi) [Example 531]	0.356 nM	–	0.0694 nM	–	3.79 nM	–	37.8 nM	5.2 nM	465 nM
YXQGTXTSDXXIXLDXKAQXXFIEYLSEGGPSSGEPPPSGTE (synthetic construct; SITE 2: note = 2-Aminoisobutyric Acid; SITE 6: note = alpha-methyl-2-fluoro-L-phenylalanine; SITE 10: note = 3-(4-Pyridyl)-L-alanine; SITE 11: note = alpha-methyl-L-serine; SITE 13: note = alpha-methyl-leucine; SITE 16: note = L-ornithine; SITE 17: note = Lysine is chemically mo) [Example 530]	4.91 nM	–	0.874 nM	–	17.1 nM	–	437 nM	63.7 nM	1280 nM
YXQGTXTSDXXIXLDXKAQXNFIEXLQEGGPSSGEPPPEGTE (synthetic construct; SITE 2: note = 2-Aminoisobutyric Acid; SITE 6: note = alpha-methyl-2-fluoro-L-phenylalanine; SITE 10: note = 3-(4-Pyridyl)-L-alanine; SITE 11: note = alpha-methyl-L-serine; SITE 13: note = alpha-methyl-leucine; SITE 16: note = L-ornithine; SITE 17: note = Lysine is chemically mo) [Example 526]	0.421 nM	–	0.0364 nM	–	8.62 nM	–	22.9 nM	2.12 nM	530 nM
YXQGTXTSDXXIXLDXKAQXQFIEXLQEGGPSSGEPPPEGTE (synthetic construct; SITE 2: note = 2-Aminoisobutyric Acid; SITE 6: note = alpha-methyl-2-fluoro-L-phenylalanine; SITE 10: note = 3-(4-Pyridyl)-L-alanine; SITE 11: note = alpha-methyl-L-serine; SITE 13: note = alpha-methyl-leucine; SITE 16: note = L-ornithine; SITE 17: note = Lysine is chemically mo) [Example 528]	0.434 nM	–	0.0333 nM	–	7 nM	–	24.3 nM	1.55 nM	474 nM
YXQGTXTSDXXIXLDXKAQXXFIEYLLEGGPSSGEPPPSGTE (synthetic construct; SITE 2: note = 2-Aminoisobutyric Acid; SITE 6: note = alpha-methyl-2-fluoro-L-phenylalanine; SITE 10: note = 3-(4-Pyridyl)-L-alanine; SITE 11: note = alpha-methyl-L-serine; SITE 13: note = alpha-methyl-leucine; SITE 16: note = L-ornithine; SITE 17: note = Lysine is chemically mo) [Example 532]	0.577 nM	–	0.0159 nM	–	1.37 nM	–	47.3 nM	1.49 nM	157 nM
YXQGTXTSDXXIXLDXKAQXXFIEXLAEGGPSSGEPPPSGTE (synthetic construct; SITE 2: note = 2-Aminoisobutyric Acid; SITE 6: note = alpha-methyl-2-fluoro-L-phenylalanine; SITE 10: note = 3-(4-Pyridyl)-L-alanine; SITE 11: note = alpha-methyl-L-serine; SITE 13: note = alpha-methyl-leucine; SITE 16: note = L-ornithine; SITE 17: note = Lysine is chemically mo) [Example 544]	0.623 nM	–	0.041 nM	–	2.71 nM	–	43 nM	2.4 nM	171 nM
YXQGTXTSDXXIXLDXKAQXXFIEYLIEGGPSSGEPPPSGTE (not fully specified; printed without C-terminal amide; synthetic construct; SITE 2: note = 2-Aminoisobutyric Acid; SITE 6: note = alpha-methyl-2-fluoro-L-phenylalanine; SITE 10: note = 3-(4-Pyridyl)-L-alanine; SITE 11: note = alpha-methyl-L-serine; SITE 13: note = alpha-methyl-leucine; SITE 16: note = L-ornithine; SITE 17: note = Lysine is chemically mo) [Example 522]	0.51 nM	–	0.033 nM	–	6.32 nM	–	35.5 nM	1.95 nM	441 nM
YXQGTXTSDXXILLDXKAQXXFIEXLQEGGPSSGEPPPEGAE (synthetic construct; SITE 2: note = 2-Aminoisobutyric Acid; SITE 6: note = alpha-methyl-2-fluoro-L-phenylalanine; SITE 10: note = 3-(4-Pyridyl)-L-alanine; SITE 11: note = alpha-methyl-L-serine; SITE 16: note = L-ornithine; SITE 17: note = Lysine is chemically modified through conjugation of the epsi) [Example 546]	0.517 nM	–	0.25 nM	–	3.67 nM	–	34.4 nM	11.9 nM	225 nM
YXQGTXTSDXXIXLDXKAQXXFIEXLTEGGPSSGEPPPSGTE (synthetic construct; SITE 2: note = 2-Aminoisobutyric Acid; SITE 6: note = alpha-methyl-2-fluoro-L-phenylalanine; SITE 10: note = 3-(4-Pyridyl)-L-alanine; SITE 11: note = alpha-methyl-L-serine; SITE 13: note = alpha-methyl-leucine; SITE 16: note = L-ornithine; SITE 17: note = Lysine is chemically mo) [Example 542]	0.388 nM	–	0.0336 nM	–	5.03 nM	–	29.6 nM	1.69 nM	256 nM
